One block for each molecule: values may come before it.
Assays:
[1] = tested on: T1, BoGUS L2; experiment: p-nitrophenol release, absorbance […] nm, Michaelis-Menten fit; type: biochemical, Bacteroides ovatus; details: 50 mM HEPES, 50 mM NaCl, pH 6.5, 37°C
T1 construct: gene GUS; GH2, loop 2 class

[2] = tested on: O=C(O)[C@H]1O[C@@H](Oc2ccc([N+](=O)[O-])cc2)[C@H](O)[C@@H](O)[C@@H]1O; experiment: purified protein; details: 37°C, at the enzyme's optimal pH (not given)
[3] = substrate: O=C(O)[C@H]1O[C@@H](Oc2ccc([N+](=O)[O-])cc2)[C@H](O)[C@@H](O)[C@@H]1O; experiment: purified protein; type: biochemical, Bacteroides uniformis; details: 37°C, at the enzyme's optimal pH (not given)

Km [1]: 930 ± 70 µM
Molecule: O=C(O)[C@H]1O[C@@H](Oc2ccc([N+](=O)[O-])cc2)[C@H](O)[C@@H](O)[C@@H]1O [PNPG, p-nitrophenyl-glucuronide]

Molecule: BfGUS mL1 (Bacteroides fragilis NCTC 9343)
Km [2]: 460 ± 60 µM
kcat [2]: 23 ± 1 s⁻¹

B1: BuGUS L2 (Bacteroides uniformis str. 3978 T3 ii) (protein)
chain: QRQTQTINDSWKFLKGECTAAADSAFDDSKWTSIHLPHTWNTDAYTEKDYYRGTGWYRRQLTLPQGWKEKQIILRLDAAGKSATIYINGKNVGEHAGGYTACSFNITPFLSFDTPNTLAVCVDNARQDIAPISGDFTFFGGIYRDVWLTAVPNQHFNLTNHGSDGLFISTPQVSEEQATLSIRGEVKNDAPEKATLELTHTIYRPDGTLLQTLKKNIQLKAGETYAFSNEATPVLKPELWTPETPRLYRVETTLRNRKTKTLLDQSNHYTAFRWFRFDGDEGFFLNGKPYKLRGICRHQDQKPIGPALTDEMHRRDFLLMKEMGANFIRISHYPQDDALLEMCDKLGMLAWEEIPIIDIVPNTPGYGDNCERNLREMIRQHYNHPSIITWGYMNEILLVTQRKYKTEAELKPVLERTLALANRLERVLKEEDSTRISTMAFHGSNSYNETGLSKITDIVGWNLYQGWYGGDLTGFEKFLAQQHQNHPTHPMIVSEYGAGSDKRLHSLHPRAFDFSIEYQQKYLEHYLPVLEDTPYICGGTHWNFIDFSSALRDESMPRINNKGLVYADRTPKDVYHYYQAAWRKDIPVLHIASRDWTDRAGVQQGNAPVYLPVKIYTNLSEVELFIDGISLGKQKTENYTATFEVPFSNRNPFLFAQGNYQGKTVQDGLRINFTPIPACLDANNLKGLELAVNVGSQCFFTSDESQLTWLPDQPYAAGSWGYIGGKEGTAQTEIQNTADGPLFQTLRNEIEGYRFDAPQGVYEIELLFTDIFRRNAGIAYQLDRNGQQENRESTFGISINGEVVEESLSPCKESGYFRALRKKYYITNDKEYIDIRFHSTSGTCFLNGIKLRNIY
notes: GH2, loop 2 class
Km [3]: 520 ± 60 µM
kcat [3]: 24 ± 1 s⁻¹

Source: article PMC6712278, “Mouse Gut Microbiome-Encoded β-Glucuronidases Identified Using Metagenome Analysis Guided by Protein Structure” (mSystems, 2019)
